Columns and labels:
[1] = biological target: protamine (from protamine sulfate); assay: Val^8-GLP-1 in the supernatant versus total, after mixing with protamine, 25 C, 24 h
poly-L-arginine = assay: Val^8-GLP-1 in the supernatant versus total, after mixing with poly-L-arginine, 25 C, 24 h
[2] = biological target: protamine (from protamine sulfate); assay: share of Val^8-GLP-1 in particles (supernatant versus total); 2.0 mg Val^8-GLP-1 + 0.22 mg protamine, ratio 9.1
[3] = biological target: protamine (from protamine sulfate); assay: share of Val^8-GLP-1 in particles (supernatant versus total); 2.0 mg Val^8-GLP-1 + 0.27 mg protamine, ratio 7.4
[4] = biological target: protamine (from protamine sulfate); assay: share of Val^8-GLP-1 in particles (supernatant versus total); 2.0 mg Val^8-GLP-1 + 0.33 mg protamine, ratio 6.1
[5] = biological target: protamine (from protamine sulfate); assay: share of Val^8-GLP-1 in particles (supernatant versus total); 2.0 mg Val^8-GLP-1 + 0.38 mg protamine, ratio 5.3
[6] = biological target: protamine (from protamine sulfate); assay: share of Val^8-GLP-1 in particles (supernatant versus total); 2.0 mg Val^8-GLP-1 + 0.44 mg protamine, ratio 4.5
[7] = biological target: protamine (from protamine sulfate); assay: share of Val^8-GLP-1 in particles (supernatant versus total); 2.0 mg Val^8-GLP-1 + 0.49 mg protamine, ratio 4.1
[8] = biological target: protamine (from protamine sulfate); assay: share of Val^8-GLP-1 in particles (supernatant versus total); 2.0 mg Val^8-GLP-1 + 0.55 mg protamine, ratio 3.6
[9] = biological target: protamine (from protamine sulfate); assay: share of Val^8-GLP-1 in particles (supernatant versus total); 2.0 mg Val^8-GLP-1 + 0.16 mg protamine, ratio 12.5

Binder: HVEGTFTSDVSSYLEGQAAKEFIAWLVKGRG [Val^8-GLP-1(7-37)OH]
- yield (share of Val^8-GLP-1 in the particles) [1]: 90 to 95%
- yield (share of Val^8-GLP-1 in the particles) (poly-L-arginine): 90%
- Yield % [2]: 73.2%
- Yield % [3]: 84.3%
- Yield % [4]: 94.5%
- Yield % [5]: 98.3%
- Yield % [6]: 99.5%
- Yield % [7]: 99.7%
- Yield % [8]: 99.4%
- Yield % [9]: 54.6%

From US20050043228A1
